Measurements taken from publication PMC6324938 (Developmental cell, 2018).

T1: Gdi1 (GDP dissociation inhibitor) (UniProt P39958 1-451)
T1 sequence (looked up): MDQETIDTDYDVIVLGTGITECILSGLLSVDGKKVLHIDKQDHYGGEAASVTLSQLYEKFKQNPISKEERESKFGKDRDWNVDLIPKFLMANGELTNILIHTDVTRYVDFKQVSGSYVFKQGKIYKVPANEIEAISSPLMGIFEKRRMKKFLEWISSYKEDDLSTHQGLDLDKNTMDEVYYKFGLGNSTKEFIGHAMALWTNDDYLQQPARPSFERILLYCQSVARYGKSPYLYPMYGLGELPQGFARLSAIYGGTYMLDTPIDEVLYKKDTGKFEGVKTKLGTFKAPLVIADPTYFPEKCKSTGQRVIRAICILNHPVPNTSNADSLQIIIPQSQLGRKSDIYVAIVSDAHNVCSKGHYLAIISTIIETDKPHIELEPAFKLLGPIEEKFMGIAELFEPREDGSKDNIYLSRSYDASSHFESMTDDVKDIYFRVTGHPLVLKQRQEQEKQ


Target: T1, Gdi1 (GDP dissociation inhibitor)
Experiment: SEC

Binder	binding result
prenylated Ypt1 (mantGDP-labeled, of the Rab/GDI substrate) (natural protein, prenylated (geranylgeranyl) at the C-terminus; loaded with mantGDP) not shown	binds
prenylated Ypt31 (mantGDP-labeled, of the Rab/GDI substrate) (natural protein, S. cerevisiae, UniProt P38555 1-223, looked up, prenylated (geranylgeranyl) at the C-terminus; loaded with mantGDP) MSSEDYGYDYDLLFKIVLIGDSGVGKSNLLSRFTKNEFNMDSKSTIGVEFATRTLEIDGKRIKAQIWDTAGQERYRAITSAYYRGAVGALIVYDISKSSSYENCNHWLSELRENADDNVAVGLIGNKSDLAHLRAVPTEESKTFAQENQLLFTETSALNSENVDKAFEELINTIYQKVSKHQMDLGDSSANGNANGASAPNGPTISLTPTPNENKKANGNNCC	binds
